In the supplement of paper PMC12764529:
± gives the half width of the 95% confidence interval.

Assays:
[1] = folding stability dG unfold from trypsin proteolysis; higher = more stable
Procedure: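 Folding stability of de novo designed mini-proteins (<80 aa, no Cys; designed by TrROS, TrMRF, ProteinMPNN and the joint model) was measured by cDNA display proteolysis with trypsin and chymotrypsin. Each protease was used at 11 concentrations in a threefold dilution series plus a no-protease condition. K50 was inferred by Bayesian fitting of sequencing counts, and dG unfold was derived against a sequence-predicted unfolded-state K50 (Tsuboyama et al. method). Sequences shown include variable-length N-terminal GS-type padding (SAGGSAGG...) inside a display construct carrying a PA tag. Rows were kept only if the AF2 dimer inter-PAE was >15, to exclude likely homo-oligomers.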

[2] = folding stability dG unfold from chymotrypsin proteolysis; higher = more stable
Summary of the method: (§1)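 Sequencing followed digestion of designed mini-proteins with trypsin and chymotrypsin, each at 11 concentrations in threefold dilutions together with a no-protease condition. The mini-proteins were under 80 residues, had no cysteine, sat in a PA-tagged cDNA display construct, and were kept only if AlphaFold2 dimer inter-PAE was above 15. From the counts, Bayesian fitting gave K50, and unfolding free energy was derived against a sequence-predicted unfolded-state K50 and a shared folded-state K50, per protease or combined.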

[3] = folding stability dG unfold (combined trypsin and chymotrypsin); higher = more stable
Summary of the method: as §1

Sequence	folding stability dG unfold [1]	folding stability dG unfold [2]	folding stability dG unfold [3]
GSLVTVFPFPENGKTVEVVVPESVGTPLSEAEIRALLLEAHPDVPAAALPAEEAAEILQATPGVEAARVVAS [r1_463_JUSTAS]	-0.877 ± 0.7 kcal/mol	-0.0131 ± 0.19 kcal/mol	-0.302 ± 0.35 kcal/mol
ITITYDKETGELTVTLSVEIEREDGYLVRVSVTIRINPNGEIKIEKKIEVIKLPPAEVKLTDEELEKLKKES [r1_4_TrROS_Hall]	2.41 ± 0.1 kcal/mol	2.51 ± 0.11 kcal/mol	2.49 ± 0.27 kcal/mol
KAYKVVFPLPKEGRTVVVYVPEEHGKPLTEEEIAALLREAYPDKEPADLPAEELAKILAAKEGVVRVEVEGS [r1_463_TrMRF]	0.866 ± 0.089 kcal/mol	0.995 ± 0.12 kcal/mol	1 ± 0.13 kcal/mol
KETVTLEFELEDGSKVRVEVDLETKEVKVEVEKPPAPPPPPVIVLPPGLTEEERERLIKELEKKGIKVVVLS [r1_242_TrROS_Hall]	2.25 ± 0.13 kcal/mol	2.21 ± 0.09 kcal/mol	2.28 ± 0.13 kcal/mol
KIKELAKKLGLNVTVKVEKKPIKNPDGSTYTITKVEVTVDKKNKTITIKVEVKNKKTNKTITKTYTIKLKKS [r1_448_TrROS_Hall]	2.37 ± 0.12 kcal/mol	2.26 ± 0.11 kcal/mol	2.64 ± 0.24 kcal/mol
SAGEIAEALGFEVVDVSIEEVDGKLRITVVVRFKDNDLVITAEAEVTEVDGELKIEIKITIEPLPPEDLSAG [r5_516_TrROS_Hall]	2.85 ± 0.26 kcal/mol	3.66 ± 0.37 kcal/mol	–
SAGGMVVVKIRIEREVDGKVEEVELVLEVELDEDGKVSAEELKALLKELLPENVKITEIEVVEPGEEPSAGG [r13_504_TrROS_Hall]	4.76 ± 0.69 kcal/mol	3.39 ± 0.2 kcal/mol	–
SAGGSAGGSAGGGMGSSVTITTEEDPTDETETTKKTKVTLNLPNPEEAEALKKKIEEKESAGGSAGGSAGGS [r10_1180_JUSTAS]	-0.47 ± 0.18 kcal/mol	-0.807 ± 0.68 kcal/mol	–
SAGGSAGGSAGGSKKVIEVPAKDLTPEQLKKLAKEGETIEITFPNGEKKEIPAEKLKPKSAGGSAGGSAGGS [r4_382_TrROS_Hall]	0.115 ± 0.15 kcal/mol	-0.998 ± 0.9 kcal/mol	–
SAGGSAGGSAGMTITVPITDLEKLKTMPELPVEVIEEGEGPPTATLDASNPELAKQAYSSSAGGSAGGSAGG [r11_65_JUSTAS]	-0.0977 ± 0.18 kcal/mol	0.117 ± 0.49 kcal/mol	–
SAGGSAGGSEEVEIRIVLPDMSEEELKAALEALLSEPGAEIEIVRVERREDGSLVVTVKVRVPSAGGSAGGS [r12_348_TrROS_Hall]	4.83 ± 0.43 kcal/mol	2.9 ± 0.12 kcal/mol	–
SAMLTTLETTTTTSDSLTVTTSLSLLPDGSLVTTTTVIDTSGNVLSSTTTVEPGPPPVTPENIALMVRLSAG [r14_171_JUSTAS]	0.298 ± 0.12 kcal/mol	–	0.125 ± 0.29 kcal/mol
SAMTIEITVPPGMSVEELAKLLKELFPEVEEIKIEVEYDEETKELKVRIEIRPKPELSEEEKEALEKLKSAG [r14_645_TrROS_Hall]	2.9 ± 0.28 kcal/mol	3.99 ± 0.47 kcal/mol	–
SLEEFLASEEAKKRLEALKPPPPVETIRIKVKAKSVEEALKAIRELFPGVEVVKIKEVRPDGYLEVEVRRSA [r9_723_TrROS_Hall]	3.89 ± 0.41 kcal/mol	2.37 ± 0.36 kcal/mol	–
SLEIAKELGFPIKRFEPTEMDPDNGRQKWEAYIPMPNRTVRVDIDIRYEPDPNGKRQPKIQIDSIEFMPPSA [r9_613_TrROS]	0.392 ± 0.12 kcal/mol	–	-0.242 ± 0.23 kcal/mol
SMNVKPFSSTISNPAVTVTTPITQPSSGEGTATLTIHRPESVTTTTHPVTDLQALIDSHAAGGVSLTGTSSA [r9_384_JUSTAS]	-0.377 ± 0.095 kcal/mol	–	< -1 kcal/mol
SMPISAEELAELFPGVVEIKPEPDSTVITAKDPNGTNPVFTLSPAGTVTVTTYTPGSGTTTTTTIPTALLSA [r9_427_JUSTAS]	0.681 ± 0.025 kcal/mol	–	0.159 ± 0.071 kcal/mol
SMSEELKKEIEAFLKEKGASIDFKTDPSTGKITITVTIPGKGTTTTITLTFPPDNPEEIKEKIKELIEKGSA [r9_42_JUSTAS]	4.88 ± 0.6 kcal/mol	–	> 6 kcal/mol
SMSPSETETTTYTRTIPFPKSNPEQAKAEAEKEVRAELEAKGLKIDIPITIEWENDTVTVTIPISVTPPLSA [r9_889_JUSTAS]	0.594 ± 0.13 kcal/mol	–	-0.144 ± 0.29 kcal/mol
SMTITHKIPPDDPEKAEEEIKEKIEKETGLKVEKVEVPEGDGATLVVTIDKEKPVVTAEVVPLLPDGTPVSA [r9_173_JUSTAS]	0.85 ± 0.17 kcal/mol	–	0.191 ± 0.35 kcal/mol
SSFMEQARNMAEELLQKKGLPPKPGEKVEIPIPYPNGMQIRITINPEEKKIDVEFYNDNQPVEHTFKIKKSA [r9_426_TrROS]	0.267 ± 0.33 kcal/mol	–	-0.821 ± 0.76 kcal/mol
SSMSTPSSSTLTVELPDREVTASATTTTLPDGTTTTTTTFPDGSTITYDPATGTTTIYDPATGAPLATTGSA [r9_970_JUSTAS]	0.959 ± 0.048 kcal/mol	–	0.344 ± 0.047 kcal/mol
SVPPFLNLPEAAKALAKAKPGPPVPRLTFPVTTDDPEEALEEILKQYPHLHPDKIKRVEVGDGYLTVEFGSA [r9_723_TrMRF]	-0.936 ± 0.34 kcal/mol	–	< -1 kcal/mol
SVVNFPVSLAATRDGNPVPIEEVLERVAKEIGGPDVKPEIKPGPGDTLVATVKLPDGTTATASDSSSVTDAS [r1_168_JUSTAS]	-0.293 ± 0.11 kcal/mol	–	< -1 kcal/mol
SVVTLEQVAELVEKGVELVAVLPDNRLLFYDPEREEPIELEVEEVPPPKPIFIEGGVESLEEALKFLEAESA [r9_649_TrMRF]	0.456 ± 0.027 kcal/mol	–	-0.381 ± 0.37 kcal/mol
